One assay concerns the target T1, myc-tagged CARD-12 (human, UniProt Q9NPP4 1-1024).
T1 construct: Transiently overexpressed in 293T cells
The assay is described as follows: co-immunoprecipitation from 293T lysates (IP anti-T7, blot anti-myc). The method, then: FIGS. 10A-10C depict the results of co-immunopreciptation analysis. FIG. 10A: After 24 hrs, extracts were prepared and immunoprecipitated (IP) with a monoclonal antibody to the T7 epitope. The immunoprecipitates were analyzed by SDS-PAGE and immunoblotted with an anti-myc polyclonal antibody. FIG. 10B: The cellular extracts were also immunoblotted (WB) with anti-T7 antibody. FIG. 10C: Extracts were also immunoprecipitated with a monoclonal antibody to myc, followed by WB with an anti-myc polyclonal antibody.
An additional mechanism by which CARD-12 may cause cell death is by the activation of upstream caspases via a CARD/CARD interaction. The proform of caspase-1 and caspase-9 both contain an N-terminal CARD. Therefore, caspase-1 and caspase-9 were investigated as possible CARD-12 signaling partners following transient overexpression in cells. Briefly, 293T cells transfected with plasmids were lysed in 50 mM Tris, pH 8.0, 120 mM NaCl, 1 mM EDTA, 0.5% Nonidet P-40 buffer and incubated with either a T7 (Sigma) or myc monoclonal antibody (SantaCruz Biotechnology, Inc.). The immune complexes were precipitated with protein G-Sepharose (Amersham Pharmacia Bio), washed extensively, and then subjected to SDS-polyacrylamide gel electrophoresis and immunoblotted with polyclonal antibody to myc (SantaCruz). […]

Assay [1] addresses CARD domain of CARD-12 fused to the DNA-binding domain of pCMV-BD (self-association partner) (human). Put plainly: cell-based or functional assay.
Assay [2] addresses CARD domain of CARD-5 (ASC) fused to the DNA-binding domain of pCMV-BD (UniProt Q9ULZ3 107-195). Put plainly: cell-based or functional assay.

This is an account of results in patent US20030190679A1 (Takeda / Millennium, published 2003).

Sequence of CARD domain of CARD-5 (ASC) fused to the DNA-binding domain of pCMV-BD (Q9ULZ3 whole entry, the tested form may be a part): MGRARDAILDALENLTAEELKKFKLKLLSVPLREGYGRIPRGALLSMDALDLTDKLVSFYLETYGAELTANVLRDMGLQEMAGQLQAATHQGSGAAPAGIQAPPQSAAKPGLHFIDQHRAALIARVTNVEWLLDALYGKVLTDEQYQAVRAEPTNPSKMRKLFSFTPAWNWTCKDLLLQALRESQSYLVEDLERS

B1: T7-tagged procaspase-9 (enzyme, UniProt P55211 1-416, looked up, not shown: small tags and cut ends)
chain: MDEADRRLLRRCRLRLVEELQVDQLWDALLSRELFRPHMIEDIQRAGSGSRRDQARQLIIDLETRGSQALPLFISCLEDTGQDMLASFLRTNRQAAKLSKPTLENLTPVVLRPEIRKPEVLRPETPRPVDIGSGGFGDVGALESLRGNADLAYILSMEPCGHCLIINNVNFCRESGLRTRTGSNIDCEKLRRRFSSLHFMVEVKGDLTAKKMVLALLELAQQDHGALDCCVVVILSHGCQASHLQFPGAVYGTDGCPVSVEKIVNIFNGTSCPSLGGKPKLFFIQACGGEQKDHGFEVASTSPEDESPGSNPEPDATPFQEGLRTFDQLDAISSLPTPSDIFVSYSTFPGFVSWRDPKSGSWYVETLDDIFEQWAHSEDLQSLLLRVANAVSVKGIYKQMPGCFNFLRKKLFFKTS
notes: Transiently overexpressed in 293T cells
Turning to B1, in the assay with myc-tagged CARD-12, the binding result is “no binding”.

B2: CARD domain of CARD-12 (residues 1-83) fused to the activation domain of pCMV-AD (plasmid pCMV-CARD-12-CARD/AD) (other, not shown: large carriers)
chain: MNFIKDNSRALIQRMGMTVIKQITDDLFVWNVLNREEVNIICCEKVEQDAARGIIHMILKKGSESCNLFLKSLKEWNYPLFQD
As for B2, the results for the “relative luciferase activity (mammalian two-hybrid)” value in assay [1] and in assay [2] were 30 fold and 10 fold, respectively.
